Data: paper PMC5655142, “Anti-diabetic drug binding site in a mammalian KATP channel revealed by Cryo-EM” (eLife, 2017)

Molecular target: the molecule itself
Assay: cryo-EM structure; purified SUR1/Kir6.2 KATP channel in digitonin, 1 mM ATP (no Mg2+) and 1 µM glibenclamide; C4 symmetry imposed; 3.63 Å

B1: rat Kir6.2 (natural protein)
chain: MLSRKGIIPEEYVLTRLAEDPTEPRYRTRERRARFVSKKGNCNVAHKNIREQGRFLQDVFTTLVDLKWPHTLLIFTMSFLCSWLLFAMVWWLIAFAHGDLAPGEGTNVPCVTSIHSFSSAFLFSIEVQVTIGFGGRMVTEECPLAILILIVQNIVGLMINAIMLGCIFMKTAQAHRRAETLIFSKHAVITLRHGRLCFMLRVGDLRKSMIISATIHMQVVRKTTSPEGEVVPLHQVDIPMENGVGGNSIFLVAPLIIYHVIDSNSPLYDLAPSDLHHHQDLEIIVILEGVVETTGITTQARTSYLADEILWGQRFVPIVAEEDGRYSVDYSKFGNTVKVPTPLCTARQLDEDRSLLDALTLASSRGPLRKRSVAVAKAKPKFSISPDSLS
notes: the final model holds residues 32-352, the distal N- and C-termini were not seen in the map; source: INS-1 clone 832/13 cells, infected with recombinant adenovirus, co-expressed with FLAG-SUR1; purified as the channel complex (digitonin, anti-FLAG M2 agarose, FLAG peptide elution)
  stoichiometry N: 4
